Experimental findings from publication PMC11189300 are described below.

For assay [1], the target named is Mis12C^M4 (human), Q9H081.
The target in assay [2] is Mis12C^M3 (human), Q9H081.
Mis12C^M3 (human), Q9H081, sequence (Q9H081 whole entry, chain 1 of 4): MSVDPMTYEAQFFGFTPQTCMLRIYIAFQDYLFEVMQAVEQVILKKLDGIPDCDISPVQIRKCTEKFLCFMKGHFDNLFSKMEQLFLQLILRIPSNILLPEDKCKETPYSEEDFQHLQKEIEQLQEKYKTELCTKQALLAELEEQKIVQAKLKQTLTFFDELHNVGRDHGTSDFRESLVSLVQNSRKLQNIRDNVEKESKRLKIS
Mis12C^M3 (human), Q9H081, sequence (Q6P1K2 whole entry, chain 2 of 4, further chain): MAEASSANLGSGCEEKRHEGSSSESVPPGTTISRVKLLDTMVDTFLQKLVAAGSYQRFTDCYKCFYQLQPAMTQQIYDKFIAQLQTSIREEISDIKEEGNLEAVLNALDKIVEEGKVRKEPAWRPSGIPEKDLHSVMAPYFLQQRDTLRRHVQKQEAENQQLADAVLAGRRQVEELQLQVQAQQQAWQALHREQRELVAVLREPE
Mis12C^M3 (human), Q9H081, sequence (Q96IY1 whole entry, chain 3 of 4, further chain): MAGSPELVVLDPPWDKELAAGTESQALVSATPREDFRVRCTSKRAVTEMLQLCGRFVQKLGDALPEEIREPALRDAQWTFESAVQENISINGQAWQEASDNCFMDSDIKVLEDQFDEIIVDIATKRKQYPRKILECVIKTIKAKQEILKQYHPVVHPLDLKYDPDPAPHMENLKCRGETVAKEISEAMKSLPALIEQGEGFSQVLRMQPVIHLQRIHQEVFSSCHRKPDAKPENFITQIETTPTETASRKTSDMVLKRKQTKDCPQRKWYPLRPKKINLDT
Mis12C^M3 (human), Q9H081, sequence (Q9H410 whole entry, chain 4 of 4, further chain): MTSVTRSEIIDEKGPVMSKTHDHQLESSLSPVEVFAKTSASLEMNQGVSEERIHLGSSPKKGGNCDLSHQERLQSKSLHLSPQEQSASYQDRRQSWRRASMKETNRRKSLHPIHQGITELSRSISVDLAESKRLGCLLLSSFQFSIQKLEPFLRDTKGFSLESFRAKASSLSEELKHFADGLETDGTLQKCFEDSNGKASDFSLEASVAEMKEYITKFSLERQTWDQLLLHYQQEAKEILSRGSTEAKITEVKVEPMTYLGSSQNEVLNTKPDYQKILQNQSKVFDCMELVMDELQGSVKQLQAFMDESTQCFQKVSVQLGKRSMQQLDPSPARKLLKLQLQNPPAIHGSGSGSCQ

Mis12C^M4 (human), Q9H081, sequence (Q9H081 whole entry, chain 1 of 4): as the sequence (Q9H081 whole entry, chain 1 of 4) above
Mis12C^M4 (human), Q9H081, sequence (Q6P1K2 whole entry, chain 2 of 4, further chain): as the sequence (Q6P1K2 whole entry, chain 2 of 4, further chain) above
Mis12C^M4 (human), Q9H081, sequence (Q96IY1 whole entry, chain 3 of 4, further chain): as the sequence (Q96IY1 whole entry, chain 3 of 4, further chain) above
Mis12C^M4 (human), Q9H081, sequence (Q9H410 whole entry, chain 4 of 4, further chain): as the sequence (Q9H410 whole entry, chain 4 of 4, further chain) above

B1: Ndc80 complex (Ndc80C): NDC80^HEC1, NUF2, SPC24, SPC25, O14777 1-642; Q9BZD4 1-464; Q8NBT2 1-197; Q9HBM1 1-224 (complex)
chain 1: MKRSSVSSGGAGRLSMQELRSQDVNKQGLYTPQTKEKPTFGKLSINKPTSERKVSLFGKRTSGHGSRNSQLGIFSSSEKIKDPRPLNDKAFIQQCIRQLCEFLTENGYAHNVSMKSLQAPSVKDFLKIFTFLYGFLCPSYELPDTKFEEEVPRIFKDLGYPFALSKSSMYTVGAPHTWPHIVAALVWLIDCIKIHTAMKESSPLFDDGQPWGEETEDGIMHNKLFLDYTIKCYESFMSGADSFDEMNAELQSKLKDLFNVDAFKLESLEAKNRALNEQIARLEQEREKEPNRLESLRKLKASLQGDVQKYQAYMSNLESHSAILDQKLNGLNEEIARVELECETIKQENTRLQNIIDNQKYSVADIERINHERNELQQTINKLTKDLEAEQQKLWNEELKYARGKEAIETQLAEYHKLARKLKLIPKGAENSKGYDFEIKFNPEAGANCLVKYRAQVYVPLKELLNETEEEINKALNKKMGLEDTLEQLNAMITESKRSVRTLKEEVQKLDDLYQQKIKEAEEEDEKCASELESLEKHKHLLESTVNQGLSEAMNELDAVQREYQLVVQTTTEERRKVGNNLQRLLEMVATHVGSVEKHLEEQIAKVDREYEECMSEDLSENIKEIRDKYEKKATLIKSSEE
chain 2: METLSFPRYNVAEIVIHIRNKILTGADGKNLTKNDLYPNPKPEVLHMIYMRALQIVYGIRLEHFYMMPVNSEVMYPHLMEGFLPFSNLVTHLDSFLPICRVNDFETADILCPKAKRTSRFLSGIINFIHFREACRETYMEFLWQYKSSADKMQQLNAAHQEALMKLERLDSVPVEEQEEFKQLSDGIQELQQSLNQDFHQKTIVLQEGNSQKKSNISEKTKRLNELKLSVVSLKEIQESLKTKIVDSPEKLKNYKEKMKDTVQKLKNARQEVVEKYEIYGDSVDCLPSCQLEVQLYQKKIQDLSDNREKLASILKESLNLEDQIESDESELKKLKTEENSFKRLMIVKKEKLATAQFKINKKHEDVKQYKRTVIEDCNKVQEKRGAVYERVTTINQEIQKIKLGIQQLKDAAEREKLKSQEIFLNLKTALEKYHDGIEKAAEDSYAKIDEKTAELKRKMFKMST
chain 3: MAAFRDIEEVSQGLLSLLGANRAEAQQRRLLGRHEQVVERLLETQDGAEKQLREILTMEKEVAQSLLNAKEQVHQGGVELQQLEAGLQEAGEEDTRLKASLLQLTRELEELKEIEADLERQEKEVDEDTTVTIPSAVYVAQLYHQVSKIEWDYECEPGMVKGIHHGPSVAQPIHLDSTQLSRKFISDYLWSLVDTEW
chain 4: MVEDELALFDKSINEFWNKFKSTDTSCQMAGLRDTYKDSIKAFAEKLSVKLKEEERMVEMFLEYQNQISRQNKLIQEKKDNLLKLIAEVKGKKQELEVLTANIQDLKEEYSRKKETISTANKANAERLKRLQKSADLYKDRLGLEIRKIYGEKLQFIFTNIDPKNPESPFMFSLHLNEARDYEVSDSAPHLEGLAEFQENVRKTNNFSAFLANVRKAFTATVYN
B1: the kinetochore levels of endogenous Ndc80C (NDC80^HEC1 immunofluorescence) in HeLa cells depleted of endogenous Mis12C and electroporated with the mutant Mis12C in assay [1] and in assay [2] was 50 % reduction each time.
